Reference: patent US20120231021A1 (GREEN CROSS, published 2012)

Legend:
[1] = molecular target: T1, epidermal growth factor receptor (EGFR) on tumor cells (A431 epidermoid carcinoma cells); MDA-MB-231 breast … (UniProt P00533 25-1210, limits assumed); assay: flow cytometry on A431 cells, 10 µg antibody
T1 construct: whole, on cells; Endogenous receptor of the cell lines; also called EGFR overexpressed in a cancer cell line (A431); EGFR in A431 cells

[2] = molecular target: T2, epidermal growth factor receptor (EGFR) (Sigma, U.S), purified protein (UniProt P00533 25-1210, limits assumed); assay: competitive ELISA, EGFR-coated plate with soluble EGFR as competitor (FIG. 9)
T2 construct: also called EGFR antigen
Description: 100 μL of EGFR (Sigma, U.S) at a 2 μg/mL dilution in PBS was added to each well of a plate and incubated overnight at 4° C. Each well was washed once with PBST, 300 μL of 1% BSA-PBS solution was added to each well, and stored for 1 hour at room temperature.
2 μg of EGFR was diluted by a two-fold and 10 μL of the diluted EGFR was added to each well of the plate. Then, 90 μL of the antibody diluted to the optimum concentration determined in (1) was added to each well, incubated for 2 hours at room temperature, and washed 4 times with PBST.

| Binder | binding result [1] | fold lower affinity than C225 [2] [times] | percent of affinity relative to C225 and M96 [2] [%] |
| --- | --- | --- | --- |
| human antibody ER2 (antibody, V domains shown, also called ER2 antibody) VH: EVQLVESGGGVVQPGGSLRLSCAASGFTFSDYDMSWIRQAPGKGLEWVSGILGGSERSYYRDSVKGRFTISRDNSRKTLYLQMNSLRAEDTAVYYCARHGSPGYTLYAWDYWGQGTTVTVSS VL: DIVMTQTPLSLPVTPGEPASISCRSNQDLTHSNGNTYLEWYLQKPGQSPRLLIYKVSNRFSGVPDRFSGSGAGTDFTLRISRVEAEDVGVYYCMQGTHWPWTFGQGTKVDIKR | binds |  |  |
| human antibody ER79 (antibody, V domains shown, also called ER79 antibody) VH: EVQLVESGGGVVQPGGSLRLSCAASGFTFSDYDMSWIRQAPGKGLEWVSGILGGSERSYYRDSVKGRFTISRDNSRKTLYLQMNSLRAEDTAVYYCARHGSPGYTLYAWDYWGQGTTVTVSS VL: DIVMTQTPLSLPVTPGEPASISCRSSQSVDMGIGNNYLEWYLQKPGQSPRLLIYKVSNRFSGVPDRFSGSGAGTDFTLRISRVEAEDVGVYYCMQGTHWPWTFGQGTKVDIKR |  | 2 | ~63 |
